Consider 1 molecule from patent US20190233486A1 (ACCELERON PHARMA, published 2019).

The target of assay [1] is T1, activin A (UniProt P08476 311-426).
T1 construct: also called ActA
T1 sequence (looked up): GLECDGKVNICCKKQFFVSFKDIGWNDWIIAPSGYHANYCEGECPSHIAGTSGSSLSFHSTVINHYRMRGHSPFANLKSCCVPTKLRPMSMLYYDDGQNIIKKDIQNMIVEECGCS
Kind of assay: Biacore SPR; ligand coupled to the chip, receptor-Fc flowed over (data reproduced from WO2006/012627).

Assay [2] addresses T2, GDF11 (UniProt O95390 299-407).
T2 construct: also called growth and differentiation factor-11; BMP11
T2 sequence (looked up): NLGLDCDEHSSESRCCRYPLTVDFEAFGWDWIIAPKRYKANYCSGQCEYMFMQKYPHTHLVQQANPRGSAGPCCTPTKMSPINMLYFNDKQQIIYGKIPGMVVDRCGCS
The description is as above.

B1: Soluble ActRIIB-Fc WT (64A) (Fc fusion, not shown: a dimerising Fc or GST)
chain: GRGEAETRECIYYNANWELERTNQSGLERCEGEQDKRLHCYASWANSSGTIELVKKGCWLDDFNCYDRQECVATEENPQVYFCCCEGNFCNERFTHLPEA
notes: Data reproduced from WO2006/012627
Turning to B1, the Kd (as a rule, the free concentration of one partner at which half of the binding sites on the other are occupied at equilibrium, for simple one-to-one binding) is 180 nM in assay [1] and 260 nM in assay [2].
